Tested on: HIV-1JRFL
Experiment: HIV-1JRFL infection of monocyte-derived macrophages, p24 ELISA
Type: cell-based
Conditions: peptide 1 hr before virus, p24 after 72 hr; FIG. 3
Description: Monocyte-derived macrophages were treated with the designated concentrations of the indicated peptide for a period of 1 hr prior to addition of HIV-1JRFL. After 2 hr, cells were washed, and viral replication was determined after 72 hr by p24 analysis. Results are representative of 4 independent experiments.
PBMCs were obtained from whole blood of normal donors and isolated by Ficoll-Paque Plus (Pharmacia Biotech, Piscataway, N.J.) density gradient centrifugation, and plated at a cell density of 2×10^6 cells/ml. Monocyte-derived macrophages (MDM) were generated from adherent human peripheral blood mononuclear cells by culture for 7 days with M-CSF (100 ng/ml). […] After 2 hr, cells were washed, and cultured for additional 48-72 hr, followed by analysis of HIV replication as determined by quantification of accumulated p24 in the supernatant. The production of p24 was determined by conventional sandwich ELISA, using ELISA plates pre-coated with capture anti-p24 antibodies provided by the AIDS Vaccine Program (SAIC Frederick, NCI-FCRDC, Frederick, Md.). The captured p24 antigen was detected using rabbit anti-HIV-1 anti-p24 antibody, and a secondary goat anti-rabbit IgG (peroxidase-labeled) antibody. The captured p24 protein was detected using a 3,3′,5,5′-tetramethylbenzidine and hydrogen peroxide detection system (KPL Laboratories, Gaithersburg, Md.). […]

B1: macrophage inflammatory protein-1β (protein)
chain: APMGSDPPTACCFSYTARKLPRNFVVDYYETSSLCSQPAVVFQTKRSKQVCADPSESWVQEYVYDLELN
inhibition of HIV-1JRFL infection of monocyte-derived macrophages (p24): comparable inhibitory activities

Source: patent publication US20060116325A1, “Methods and compositions for inhibiting hiv-coreceptor interactions” (priority 2001, published 2006)
